B1: H1H27762P2-N297Q (antibody, V domains shown)
VH: QVQLVQSGAEVKKPGSSVKVSCKASGGTFSRYDISWVRQAPGQGLEWMGGIIPIFGTSNYAQKFQGRVTITTDESTSTVYMELSSLRSEDTAVYYCARGGRYGWFDPWGQGTLVTVSS
VL: not shown
B2: H2aM21229N (antibody, V domains shown)
VH: EVQLVESGGGLVKPGGSLRLSCAASGFTFSRYSMNWVRQAPGKGLEWVSSISSSSSYIYYGDTVKGRFTISRDNAKKSLYLQMNSLRAEDTAVYYCVRDRGQLVLYFDYWGQGTLVTVSS
VL: DIQMTQSPASLSTSIRDRVTITCRASLSISSFLNWFQQRPGKAPKLLIYVASNLQSGVPSRFSDSGSGTDFTLTISSLQPEDFATYYCQQNYSTPPITFGQGTRLEIK
B3: H1H27756P-N297Q (antibody, V domains shown)
VH: QVQLVESGGGVVQPGRSLRLSCAASGFTFSNYDMHWVRQAPGKGLEWMAVISYDGINKYYADSVKGRFTISRDNSKNTLYLQMNSLRAEDTAVYYCAKGTYSWYFDLWGRGTLVTVSS
VL: not shown
B4: H1H27751P-N297Q (antibody, V domains shown)
VH: EVQLVESGGGLVQPGGSLRLSCAASGFTFSNYAMHWVRQAPGKGLEYVSAISSNGGSTYYADSVKGRITISRDNSKNTLYLQMGSLRAEDMAVYYCARGRPYYYYFGMDVWGQGTTVTVSS
VL: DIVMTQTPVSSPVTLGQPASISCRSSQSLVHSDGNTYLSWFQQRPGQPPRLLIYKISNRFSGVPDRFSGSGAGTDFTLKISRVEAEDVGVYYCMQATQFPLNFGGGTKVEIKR
B5: H1H27747P-N297Q (antibody, V domains shown)
VH: QVQLVESGGAVVQPGRSLRLSCAASGFTFSYYGMHWVRQAPGKGLEWVAVISYDGSKKYYADSVKGRFTISRDNSKNTLYLQMNSLRAEDTAVYYCAKDLTVDFYYGMDVWGQGTTVTVSS
VL: DIQMTQSPSSVSASVGDRVTITCRASQGISSWLAWYQQKPGKAPKLLIYATSSLQSGAPSRFSGSGSGTDFTLTISSLQPEDFATYFCQQANSFPYTFGQGTKLEIKR
B6: H1H27754P-N297Q (antibody, V domains shown)
VH: EVQLVESGGGLVQPGGSLRLSCAASGFTFRTYAMTWVRQAPGKGLDWVSAITGDGGNTYYADSVKGRFTISRDNSKNTLYLQMNSLRAEDTAIYYCAKDQRFSFALYYFDYWGQGTLVTVSS
VL: DIQMTQSPSSVSASVGDRVTITCRASQGISSWLAWYQQKPGNAPKLLIYAAFSLQSGVPSRFSGSGSGTDFTLTISSLQPEDFATYYCQQANNFPWTFGQGTKVEIKR
B7: H1M21231N (antibody, V domains shown)
VH: EVQLVESGGGLVQPGGSLRLSCAASGFTFSDHYMDWVRQAPGKGLEWVGRTRNKANSHTTEYTASVTGRFTISRDDSRNSLYLQMNSLKTEDTAVYYCVRAGIIGTLFDYWGQGTLVTVSS
VL: DIQMTQFPSSLSASVGDRVTITCRASQSISSFLNWFQQKPGKAPKFLIYAASSLQSGVPSRFSGSGSGTDFTLTISSLQPEDFATYYCQQSYSSPPITFGQGTRLEIKR
B8: H2aM21235N (antibody, V domains shown)
VH: EVQLVESGGGLVQPGGSLRLSCAASGFTFSDHYMDWVRQAPGKGLEWVGRTRNKANSYTTEYAASVSGRFTISRDDSKNSLYLQMNSLKTEDTAVYYCTRAGIIGTLFDYWGQGTLVTVSS
VL: DIQMTQSPSSLSASVGDRVTITCRASQIIGRYLNWFQQKPGKVPKLLIYAASSLQRGVPSRFSGSGSGTDFTLTISSLQPEDFATYYCQQSYNTPPITFGQGTRLEIKR
B9: H1H27739P-N297Q (antibody, V domains shown)
VH: EVQLVESGGGLVQPGGSLRLSCTASGFTFSSYAMSWVRQAPGKGLEWVSAISGTGSSTYFTDSVKGRFAISRDNSKNTLYLQMNSLRAEDTAVYYCAKDGEWLSTVTLFDYWGQGTLVTVSS
VL: EIVMTQSPATLSVSPGERATLSCRASQSVSSNLAWYQQKPGQAPRLLIYGASTRATGIPARFSGSGSGTDFTLTISSLQSEDFALYYCQQYFIWPPHPTFGPGTKVDIKR
B10: H1H27766P2-N297Q (antibody, V domains shown)
VH: EVQLVESGGGLVQPGGSLRLSCAASGFTFSSFAMSWVRQAPGKELEWVSSISGRGGSTYYADSVRGRFTISRDNSKITLYLQMNSLRAEDTAVYYCAKDIVFRYTSSAYWYFDLWGRGTLVTVSS
VL: not shown
B11: H2bM21234N (antibody, V domains shown)
VH: QVQLQESGPGLVKPSETLSLTCTVTGGSISRNYWSWIRQPPGKGLEWIGYIYYSGSIDYNPSLKSRVTISVDTSKNQFSLKLSSMTAADTAVYYCARDRWNWKYGMDVWGQGTTVIVSS
VL: EIVLTQSPGTLSLSPGERATLSCRASQTVRNNYLAWYHQKPGQAPRLLIYGASSRATGIPDRFSGSGSGTDFTLTISRLEPEDFTVYYCHQYGNSPWTFGQGTKMEIKR
B12: H1H27759P2-N297Q (antibody, V domains shown)
VH: EVQLVESGGGFVQPGGSLRLSCAASGFTFSSYAMSWVRQAPGKGLEWVSAISGTGSNTYYADSVKGRFTISRDNSKNTLYLQMNSLRAEDTAVYYCAKDRVTTVTYYFDYWGQGTLVTVSS
VL: not shown
B13: H1H27760P2-N297Q (antibody, V domains shown)
VH: EVQLVESGGGLVQPGRSLRLSCAASGFTFDAYAMHWVRQAPGKGLEWVSGISWNSGSIGYADSVKGRFTISRDNAKNSLYLQMNSLREEDTALYYCAKDKILELYYYGMDVWGQGTTVTVSS
VL: not shown
B14: H1H27734P-N297Q (antibody, V domains shown)
VH: EVQLVESRGGLVQPGGSLRLSCAASGFTFSSYAMSWVRQAPGKGLEWVSAISGSGGSTFYADSVKGRFTISRDNSKNTVYLQMNSLRAEDTAVYYCAKALVLRFLEWLGDYWGQGTLVTVSS
VL: DIQMTQSPSTLSASVGDRVTITCRASQSISSWLAWFQQKPGKAPKLLIYKASSLESGVPSRFSGSGSGTEFTLTISSLQPDDFATYYCQQYKSYWTFGQGTKVEIKR
B15: H2aM25685N (antibody, V domains shown)
VH: QVQLVQSGAEVREPGASVKLSCKVSGYTLTELSIHWVRQAPGKGLEWMGGFDPEEGETVYAQKFRGRVTLTEDISPDTAYMELSSLTSEDTAVYYCATPRYCNNGICYDYWGQGTLITVSS
VL: not shown
B16: H1H27761P2-N297Q (antibody, V domains shown)
VH: EVQLVESGGDLVQPGGSLRLSCSASGFTFNIYAMSWVRQAPGKGLEWVSGISGSGGSTYYADSVKGRFTISRDNSKNTLYFQMNSLRVEDTAVYYCAKKISSSSYYYYAMDVWGQGTTVTVSS
VL: not shown
B17: H2aM21228N (antibody, V domains shown)
VH: VQLVESGGGLVQPGGSLRLSCAASGFTFSDHYMDWVRQAPGKGLEWVGRTRNKANSHTTEYAASVSGRFTISRDDSKNSLYLQMNSLKTEDTAVYYCTRAGIIGTLFDYWGQGTLVTVSS
VL: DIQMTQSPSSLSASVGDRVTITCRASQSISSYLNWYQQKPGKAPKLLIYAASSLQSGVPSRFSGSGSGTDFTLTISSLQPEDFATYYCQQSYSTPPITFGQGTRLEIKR

Each binder was assayed against T1, human MSR1 with a C-terminal Myc tag expressed on HEK293.Myc.hMSR1 cells (human, UniProt P21757 1-451) (assay: cell-based or functional assay).
T1 sequence (looked up): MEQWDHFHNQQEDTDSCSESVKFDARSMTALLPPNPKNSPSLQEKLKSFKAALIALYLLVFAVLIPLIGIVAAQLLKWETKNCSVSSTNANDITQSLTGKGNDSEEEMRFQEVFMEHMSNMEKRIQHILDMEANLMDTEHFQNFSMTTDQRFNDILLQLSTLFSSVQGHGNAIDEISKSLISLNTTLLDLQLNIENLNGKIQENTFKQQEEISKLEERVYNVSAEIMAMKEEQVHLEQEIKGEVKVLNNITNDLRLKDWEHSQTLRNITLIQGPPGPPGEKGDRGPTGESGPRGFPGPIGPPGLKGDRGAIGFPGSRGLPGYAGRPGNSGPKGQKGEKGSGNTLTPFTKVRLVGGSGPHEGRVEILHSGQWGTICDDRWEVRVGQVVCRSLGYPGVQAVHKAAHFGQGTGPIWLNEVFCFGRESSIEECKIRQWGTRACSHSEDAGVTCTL
In the case of B1, the “IC50 of inhibition of Dil-Acetylated LDL uptake” value is reported as 2.9 nM and the “IC50 of inhibition of Dil-Oxidized LDL uptake” value is reported as 4 nM. B2 was tested, and the “IC50 of inhibition of Dil-Oxidized LDL uptake” value was over 100 nM. In the case of B3, the “IC50 of inhibition of Dil-Acetylated LDL uptake” value is reported as over 100 nM. In the case of B4, the “IC50 of inhibition of Dil-Acetylated LDL uptake” value is reported as 1.6 nM and the “IC50 of inhibition of Dil-Oxidized LDL uptake” value is reported as 2.9 nM. With B5 the “IC50 of inhibition of Dil-Acetylated LDL uptake” value was over 100 nM and the “IC50 of inhibition of Dil-Oxidized LDL uptake” value was over 100 nM. In the case of B6, the “IC50 of inhibition of Dil-Acetylated LDL uptake” value is reported as 1.8 nM and the “IC50 of inhibition of Dil-Oxidized LDL uptake” value is reported as 4.6 nM. In the case of B7, the “IC50 of inhibition of Dil-Acetylated LDL uptake” value is reported as over 20 nM and the “IC50 of inhibition of Dil-Oxidized LDL uptake” value is reported as 3.7 nM. B8 was tested, and the “IC50 of inhibition of Dil-Acetylated LDL uptake” value was over 100 nM. For B9, the “IC50 of inhibition of Dil-Oxidized LDL uptake” value was over 100 nM. B10 was tested, and the “IC50 of inhibition of Dil-Acetylated LDL uptake” value was 3.5 nM and the “IC50 of inhibition of Dil-Oxidized LDL uptake” value was 3.7 nM. B11 was tested, and the “IC50 of inhibition of Dil-Acetylated LDL uptake” value was 1.8 nM and the “IC50 of inhibition of Dil-Oxidized LDL uptake” value was 4.5 nM. In the case of B12, the “IC50 of inhibition of Dil-Acetylated LDL uptake” value is reported as over 100 nM and the “IC50 of inhibition of Dil-Oxidized LDL uptake” value is reported as over 10 nM. B13 was tested, and the “IC50 of inhibition of Dil-Acetylated LDL uptake” value was 2.6 nM and the “IC50 of inhibition of Dil-Oxidized LDL uptake” value was 4.9 nM. For B14, the “IC50 of inhibition of Dil-Oxidized LDL uptake” value was 5.5 nM. In the case of B15, the “% Inhibition of Dil-Acetylated LDL uptake” value is reported as 22%, the “% Inhibition of Dil-Oxidized LDL uptake” value is reported as 43% and the “IC50 of inhibition of Dil-Acetylated LDL uptake” value is reported as over 100 nM. For the same binder, the “IC50 of inhibition of Dil-Oxidized LDL uptake” value was over 100 nM. In the case of B16, the “IC50 of inhibition of Dil-Acetylated LDL uptake” value is reported as over 100 nM and the “IC50 of inhibition of Dil-Oxidized LDL uptake” value is reported as 9.5 nM. With B17 the “IC50 of inhibition of Dil-Acetylated LDL uptake” value was over 100 nM and the “IC50 of inhibition of Dil-Oxidized LDL uptake” value was 3.1 nM.

From US20200368361A1 (Regeneron, published 2020)
